Assay results published in patent publication US20110135632A1.

Columns and labels:
human TFII-I (human) = human TFII-I (human) (UniProt P78347); assay: cell-based or functional assay
human GATA2 (human) = human GATA2 (human) (UniProt P23769); assay: cell-based or functional assay
Sequence of human GATA2 (human) (P23769 whole entry): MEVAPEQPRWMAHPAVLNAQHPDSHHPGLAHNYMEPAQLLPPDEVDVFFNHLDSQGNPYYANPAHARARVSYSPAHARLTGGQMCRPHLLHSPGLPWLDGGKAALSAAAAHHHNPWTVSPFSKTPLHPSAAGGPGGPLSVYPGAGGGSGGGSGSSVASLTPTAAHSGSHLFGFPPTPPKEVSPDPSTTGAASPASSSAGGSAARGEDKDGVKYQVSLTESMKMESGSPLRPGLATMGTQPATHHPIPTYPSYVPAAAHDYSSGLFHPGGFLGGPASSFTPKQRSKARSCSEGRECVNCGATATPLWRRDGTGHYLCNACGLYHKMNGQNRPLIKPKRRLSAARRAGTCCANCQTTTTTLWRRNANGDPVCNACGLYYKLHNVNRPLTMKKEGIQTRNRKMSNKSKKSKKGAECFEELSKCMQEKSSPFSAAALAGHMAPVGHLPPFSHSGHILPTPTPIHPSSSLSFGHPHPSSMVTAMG

Sequence of human TFII-I (human) (P78347 2-998 limits assumed): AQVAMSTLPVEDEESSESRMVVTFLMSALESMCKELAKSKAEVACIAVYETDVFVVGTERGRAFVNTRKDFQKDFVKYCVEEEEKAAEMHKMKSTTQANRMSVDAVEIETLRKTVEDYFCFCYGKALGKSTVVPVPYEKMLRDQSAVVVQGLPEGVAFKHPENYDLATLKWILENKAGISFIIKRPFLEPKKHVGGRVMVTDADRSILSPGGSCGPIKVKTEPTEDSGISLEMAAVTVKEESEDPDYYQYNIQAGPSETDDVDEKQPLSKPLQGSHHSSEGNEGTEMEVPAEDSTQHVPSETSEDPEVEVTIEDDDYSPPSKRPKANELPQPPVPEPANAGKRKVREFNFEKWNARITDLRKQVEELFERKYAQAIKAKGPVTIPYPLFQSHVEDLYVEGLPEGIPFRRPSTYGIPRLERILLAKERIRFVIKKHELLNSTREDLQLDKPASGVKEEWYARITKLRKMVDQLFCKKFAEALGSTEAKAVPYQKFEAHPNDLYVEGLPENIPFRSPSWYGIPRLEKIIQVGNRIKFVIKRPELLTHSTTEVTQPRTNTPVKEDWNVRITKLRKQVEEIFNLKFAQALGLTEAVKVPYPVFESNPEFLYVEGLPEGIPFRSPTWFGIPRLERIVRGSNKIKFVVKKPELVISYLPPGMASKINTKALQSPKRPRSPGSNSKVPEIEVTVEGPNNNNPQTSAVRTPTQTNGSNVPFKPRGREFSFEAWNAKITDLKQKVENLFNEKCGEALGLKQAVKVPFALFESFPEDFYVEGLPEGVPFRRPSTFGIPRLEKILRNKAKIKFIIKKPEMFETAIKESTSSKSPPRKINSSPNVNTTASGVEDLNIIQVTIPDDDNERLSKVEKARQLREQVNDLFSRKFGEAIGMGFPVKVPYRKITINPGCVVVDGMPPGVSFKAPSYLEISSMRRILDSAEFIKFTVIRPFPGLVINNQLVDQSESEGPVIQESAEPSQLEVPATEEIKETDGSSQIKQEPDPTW

B1: human p190RhoGAP (protein)
chain: MMMARKQDVRIPTYNISVVGLSGTEKEKGQCGIGKSCLCNRFVRPSADEFHLDHTSVLSTSDFGGRVVNNDHFLYWGEVSRSLEDCVECKMHIVEQTEFIDDQTFQPHRSTALQPYIKRAAATKLASAEKLMYFCTDQLGLEQDFEQKQMPDGKLLVDGFLLGIDVSRGMNRNFDDQLKFVSNLYNQLAKTKKPIVVVLTKCDEGVERYIRDAHTFALSKKNLQVVETSARSNVNVDLAFSTLVQLIDKSRGKTKIIPYFEALKQQSQQIATAKDKYEWLVSRIVKNHNENWLSVSRKMQASPEYQDYVYLEGTQKAKKLFLQHIHRLKHEHIERRRKLYLAALPLAFEALIPNLDEIDHLSCIKAKKLLETKPEFLKWFVVLEETPWDATSHIDNMENERIPFDLMDTVPAEQLYEAHLEKLRNERKRVEMRRAFKENLETSPFITPGKPWEEARSFIMNEDFYQWLEESVYMDIYGKHQKQIIDKAKEEFQELLLEYSELFYELELDAKPSKEKMGVIQDVLGEEQRFKALQKLQAERDALILKHIHFVYHPTKETCPSCPACVDAKIEHLISSRFIRPSDRNQKNSLSDPNIDRINLVILGKDGLARELANEIRALCTNDDKYVIDGKMYELSLRPIEGNVRLPVNSFQTPTFQPHGCLCLYNSKESLSYVVESIEKSRESTLGRRDNHLVHLPLTLILVNKRGDTSGETLHSLIQQGQQIASKLQCVFLDPASAGIGYGRNINEKQISQVLKGLLDSKRNLNLVSSTASIKDLADVDLRIVMCLMCGDPFSADDILFPVLQSQTCKSSHCGSNNSVLLELPIGLHKKRIELSVLSYHSSFSIRKSRLVHGYIVFYSAKRKASLAMLRAFLCEVQDIIPIQLVALTDGAVDVLDNDLSREQLTEGEEIAQEIDGRFTSIPCSQPQHKLEIFHPFFKDVVEKKNIIEATHMYDNAAEACSTTEEVFNSPRAGSPLCNSNLQDSEEDIEPSYSLFREDTSLPSLSKDHSKLSMELEGNDGLSFIMSNFESKLNNKVPPPVKPKPPVHFEITKGDLSYLDQGHRDGQRKSVSSSPWLPQDGFDPSDYAEPMDAVVKPRNEEENIYSVPHDSTQGKIITIRNINKAQSNGSGNGSDSEMDTSSLERGRKVSIVSKPVLYRTRCTRLGRFASYRTSFSVGSDDELGPIRKKEEDQASQGYKGDNAVIPYETDEDPRRRNILRSLRRNTKKPKPKPRPSITKATWESNYFGVPLTTVVTPEKPIPIFIERCIEYIEATGLSTEGIYRVSGNKSEMESLQRQFDQDHNLDLAEKDFTVNTVAGAMKSFFSELPDPLVPYNMQIDLVEAHKINDREQKLHALKEVLKKFPKENHEVFKYVISHLNKVSHNNKVNLMTSENLSICFWPTLMRPDFSTMDALTATRTYQTIIELFIQQCPFFFYNRPITEPPGARPSSPSAVASTVPFLTSTPVTSQPSPPQSPPPTPQSPMQPLLPSQLQAEHTL
TFII-I protein levels in the nuclear fraction of p190RhoGAP knockdown HMVE cells (immunoblot, fluorescence microscopy) (human TFII-I (human)): 1.5 fold | GATA2 levels in the nucleus of p190RhoGAP knockdown cells relative to control cells (immunoblotting, fluorescence microscopy) (human GATA2 (human)): > 10 fold
